± gives the uncertainty stated by the source.
Test: abundance fitness (aPCA) (normalised: wild type 0, dead -1); higher = more abundant; growth selection in yeast, the domain comes from the species named
Settings: Homo sapiens

## Lipoamide acyltransferase component of branched-chain alpha-keto acid dehydrogenase complex, mitochondrial V177A, P11182
  abundance fitness: 0.038 ± 0.04

## Lipoamide acyltransferase component of branched-chain alpha-keto acid dehydrogenase complex, mitochondrial V177D, P11182
  abundance fitness: -0.417 ± 0.073

## Lipoamide acyltransferase component of branched-chain alpha-keto acid dehydrogenase complex, mitochondrial V177E, P11182
  abundance fitness: -0.385 ± 0.049

## Lipoamide acyltransferase component of branched-chain alpha-keto acid dehydrogenase complex, mitochondrial V177F, P11182
  abundance fitness: -0.818 ± 0.076

## Lipoamide acyltransferase component of branched-chain alpha-keto acid dehydrogenase complex, mitochondrial V177G, P11182
  abundance fitness: -0.289 ± 0.038

## Lipoamide acyltransferase component of branched-chain alpha-keto acid dehydrogenase complex, mitochondrial V177H, P11182
  abundance fitness: -0.547 ± 0.15

## Lipoamide acyltransferase component of branched-chain alpha-keto acid dehydrogenase complex, mitochondrial V177I, P11182
  abundance fitness: -0.139 ± 0.058

## Lipoamide acyltransferase component of branched-chain alpha-keto acid dehydrogenase complex, mitochondrial V177L, P11182
  abundance fitness: -0.321 ± 0.04

## Lipoamide acyltransferase component of branched-chain alpha-keto acid dehydrogenase complex, mitochondrial V177M, P11182
  abundance fitness: -0.329 ± 0.078

## Lipoamide acyltransferase component of branched-chain alpha-keto acid dehydrogenase complex, mitochondrial V177N, P11182
  abundance fitness: -0.742 ± 0.26

## Lipoamide acyltransferase component of branched-chain alpha-keto acid dehydrogenase complex, mitochondrial V177P, P11182
  abundance fitness: -0.64 ± 0.08

## Lipoamide acyltransferase component of branched-chain alpha-keto acid dehydrogenase complex, mitochondrial V177R, P11182
  abundance fitness: -0.802 ± 0.043

## Lipoamide acyltransferase component of branched-chain alpha-keto acid dehydrogenase complex, mitochondrial V177S, P11182
  abundance fitness: -0.255 ± 0.045

## Lipoamide acyltransferase component of branched-chain alpha-keto acid dehydrogenase complex, mitochondrial V177T, P11182
  abundance fitness: -0.401 ± 0.06

## Lipoamide acyltransferase component of branched-chain alpha-keto acid dehydrogenase complex, mitochondrial V177W, P11182
  abundance fitness: -0.975 ± 0.14

## Lipoamide acyltransferase component of branched-chain alpha-keto acid dehydrogenase complex, mitochondrial V191A, P11182
  abundance fitness: -0.52 ± 0.058

## Lipoamide acyltransferase component of branched-chain alpha-keto acid dehydrogenase complex, mitochondrial V191C, P11182
  abundance fitness: -0.267 ± 0.053

## Lipoamide acyltransferase component of branched-chain alpha-keto acid dehydrogenase complex, mitochondrial V191D, P11182
  abundance fitness: -0.522 ± 0.092

## Lipoamide acyltransferase component of branched-chain alpha-keto acid dehydrogenase complex, mitochondrial V191E, P11182
  abundance fitness: -0.562 ± 0.043

## Lipoamide acyltransferase component of branched-chain alpha-keto acid dehydrogenase complex, mitochondrial V191F, P11182
  abundance fitness: -0.456 ± 0.054

## Lipoamide acyltransferase component of branched-chain alpha-keto acid dehydrogenase complex, mitochondrial V191H, P11182
  abundance fitness: -0.619 ± 0.12

## Lipoamide acyltransferase component of branched-chain alpha-keto acid dehydrogenase complex, mitochondrial V191K, P11182
  abundance fitness: -0.653 ± 0.045

## Lipoamide acyltransferase component of branched-chain alpha-keto acid dehydrogenase complex, mitochondrial V191L, P11182
  abundance fitness: -0.117 ± 0.047

## Lipoamide acyltransferase component of branched-chain alpha-keto acid dehydrogenase complex, mitochondrial V191M, P11182
  abundance fitness: -0.075 ± 0.051

## Lipoamide acyltransferase component of branched-chain alpha-keto acid dehydrogenase complex, mitochondrial V191N, P11182
  abundance fitness: -0.699 ± 0.23

## Lipoamide acyltransferase component of branched-chain alpha-keto acid dehydrogenase complex, mitochondrial V191P, P11182
  abundance fitness: -0.482 ± 0.044

## Lipoamide acyltransferase component of branched-chain alpha-keto acid dehydrogenase complex, mitochondrial V191Q, P11182
  abundance fitness: -0.632 ± 0.061

## Lipoamide acyltransferase component of branched-chain alpha-keto acid dehydrogenase complex, mitochondrial V191R, P11182
  abundance fitness: -0.756 ± 0.045

## Lipoamide acyltransferase component of branched-chain alpha-keto acid dehydrogenase complex, mitochondrial V191S, P11182
  abundance fitness: -0.593 ± 0.054

## Lipoamide acyltransferase component of branched-chain alpha-keto acid dehydrogenase complex, mitochondrial V191T, P11182
  abundance fitness: -0.696 ± 0.079

## Lipoamide acyltransferase component of branched-chain alpha-keto acid dehydrogenase complex, mitochondrial V191W, P11182
  abundance fitness: -0.899 ± 0.064

## Lipoamide acyltransferase component of branched-chain alpha-keto acid dehydrogenase complex, mitochondrial V191Y, P11182
  abundance fitness: -0.772 ± 0.067

## Lipoamide acyltransferase component of branched-chain alpha-keto acid dehydrogenase complex, mitochondrial V192A, P11182
  abundance fitness: -0.009 ± 0.045

## Lipoamide acyltransferase component of branched-chain alpha-keto acid dehydrogenase complex, mitochondrial V192C, P11182
  abundance fitness: -0.017 ± 0.055

## Lipoamide acyltransferase component of branched-chain alpha-keto acid dehydrogenase complex, mitochondrial V192D, P11182
  abundance fitness: -0.159 ± 0.12

## Lipoamide acyltransferase component of branched-chain alpha-keto acid dehydrogenase complex, mitochondrial V192E, P11182
  abundance fitness: 0.023 ± 0.045

## Lipoamide acyltransferase component of branched-chain alpha-keto acid dehydrogenase complex, mitochondrial V192F, P11182
  abundance fitness: -0.31 ± 0.21

## Lipoamide acyltransferase component of branched-chain alpha-keto acid dehydrogenase complex, mitochondrial V192I, P11182
  abundance fitness: -0.041 ± 0.086

## Lipoamide acyltransferase component of branched-chain alpha-keto acid dehydrogenase complex, mitochondrial V192K, P11182
  abundance fitness: 0.062 ± 0.046

## Lipoamide acyltransferase component of branched-chain alpha-keto acid dehydrogenase complex, mitochondrial V192L, P11182
  abundance fitness: -0.068 ± 0.044

## Lipoamide acyltransferase component of branched-chain alpha-keto acid dehydrogenase complex, mitochondrial V192M, P11182
  abundance fitness: -0.066 ± 0.1

## Lipoamide acyltransferase component of branched-chain alpha-keto acid dehydrogenase complex, mitochondrial V192N, P11182
  abundance fitness: -0.073 ± 0.062

## Lipoamide acyltransferase component of branched-chain alpha-keto acid dehydrogenase complex, mitochondrial V192P, P11182
  abundance fitness: 0.011 ± 0.05

## Lipoamide acyltransferase component of branched-chain alpha-keto acid dehydrogenase complex, mitochondrial V192Q, P11182
  abundance fitness: -0.023 ± 0.046

## Lipoamide acyltransferase component of branched-chain alpha-keto acid dehydrogenase complex, mitochondrial V192R, P11182
  abundance fitness: -0.027 ± 0.038

## Lipoamide acyltransferase component of branched-chain alpha-keto acid dehydrogenase complex, mitochondrial V192S, P11182
  abundance fitness: -0.041 ± 0.053

## Lipoamide acyltransferase component of branched-chain alpha-keto acid dehydrogenase complex, mitochondrial V192T, P11182
  abundance fitness: 0.046 ± 0.052

## Lipoamide acyltransferase component of branched-chain alpha-keto acid dehydrogenase complex, mitochondrial V192Y, P11182
  abundance fitness: -0.141 ± 0.079
